Measured values published in article PMC10031210.
Where two headings read alike, the source gives them in different places.

What was measured:
[1] = molecular target: N-FkpA (N-terminal domain of FkpA) (E. coli) (UniProt P45523); assay: AUC
[2] = molecular target: unfolded transmembrane β-barrel of outer membrane protein A (uOmpA171) (E. coli) (UniProt P0A910); assay: AUC
Target sequence in this assay (P0A910 22-192): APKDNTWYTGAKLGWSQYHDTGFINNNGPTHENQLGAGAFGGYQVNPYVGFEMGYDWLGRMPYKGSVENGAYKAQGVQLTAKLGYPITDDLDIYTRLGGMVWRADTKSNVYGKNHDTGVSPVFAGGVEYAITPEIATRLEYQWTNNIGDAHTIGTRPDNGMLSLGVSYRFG

[3] = molecular target: unfolded transmembrane β-barrel of outer membrane protein A (uOmpA171) (E. coli) (UniProt P0A910); assay: AUC; remark: listed apart in the source
Target sequence in this assay (P0A910 22-192): as above

[4] = molecular target: unfolded transmembrane β-barrel of outer membrane protein A (uOmpA171) (E. coli) (UniProt P0A910); assay: AUC; remark: listed apart in the source
Target sequence in this assay (P0A910 22-192): as above

[5] = molecular target: unfolded transmembrane β-barrel of outer membrane protein A (uOmpA171) (E. coli) (UniProt P0A910); assay: AUC; remark: listed apart in the source
Target sequence in this assay (P0A910 22-192): as above

[6] = molecular target: FkpA (full-length, dimeric form) (E. coli) (UniProt P45523); assay: AUC
[7] = molecular target: unfolded transmembrane β-barrel of outer membrane protein A (uOmpA171) (E. coli) (UniProt P0A910); assay: AUC; remark: listed apart in the source
Target sequence in this assay (P0A910 22-192): as above

[8] = molecular target: unfolded outer membrane protein X (uOmpX) (E. coli) (UniProt P0A917); assay: cross-linking
[9] = molecular target: unfolded transmembrane β-barrel of outer membrane protein A (uOmpA171) (E. coli) (UniProt P0A910); assay: cross-linking
[10] = molecular target: unfolded β-barrel assembly machine A (uBamA) (UniProt P0A940); assay: cross-linking

stoichiometry N [1]	Kd [2] [µM]	Kd [3] [µM]	Kd [4] [µM]	Kd [5] [µM]	stoichiometry N [6]	Kd [7] [µM]	crosslinking efficiency [8] [%]	crosslinking efficiency [9] [%]	crosslinking efficiency [10] [%]	Substance
2	44	–	–	–	–	–	–	–	–	N-FkpA (N-terminal domain of FkpA) (from UniProt P45523 26-270) (domain or fragment)
–	1.1	0.008	0.4	0.7	2	2.9	–	–	–	FkpA (full-length, dimeric form) (from UniProt P45523 26-270) (natural protein)
–	–	–	–	–	–	–	81	83.2	81.8	FkpA pAzF variant Y225pAzF (from UniProt P45523 26-270) (natural protein)
